Data on nine sequences can be found in the supplement of paper PMC10065799, “High-throughput profiling of sequence recognition by tyrosine kinases and SH2 domains using bacterial peptide display” (eLife, 2023).

One data set concerns the target c-Src SH2. In words: SH2 binding enrichment of the phosphorylated peptide, bacterial display (enrichment ratio); higher = better substrate or ligand; peptides without Tyr show the background.
For another data set, the target named is Grb2 SH2 (UniProt P62993). The data set is described as above.
For another data set, the target named is SHP2-C SH2. The data set is described as above.
Another data set deals with MERTK (UniProt Q12866). Put plainly: phosphorylation enrichment, bacterial display (enrichment ratio); higher = better substrate or ligand; peptides without Tyr show the background.
The target in a further data set is Hck (UniProt P08631). Described as above.
In another data set the test system is AncSZ. Described as above.
The target of another data set is EPHB2 (UniProt P29323). Described as above.
The next data set concerns c-Abl (mouse). The description is as above.
Another data set concerns the target Fyn (UniProt P06241). The description is as above.
In another data set the test system is c-Src. The data set is described as above.
A further data set deals with Jak2 (UniProt O60674). The description is as above.
The next data set addresses EPHB1 (UniProt P54762). The description is as above.
A further data set has as its target FGFR3 (UniProt P22607). The data set is described as above.
The target in the next data set is FGFR1 (UniProt P11362). The data set is described as above.
Another data set has as its target Fes (UniProt P07332). The data set is described as above.
Another data set relates to Fer (mouse). The data set is described as above.
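Wherever SH2 binding enrichment of the phosphorylated peptide, bacterial display is given: peptide library displayed on the E. coli surface as eCPX fusions, selected cells deep-sequenced, score is each peptide's frequency after selection divided by its frequency in the input.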
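Wherever phosphorylation enrichment, bacterial display is given: 11-residue human phosphosite peptides and single-mutation variants displayed on the E. coli surface, counted by deep sequencing, each peptide's frequency after selection divided by its frequency in the unselected input library; frequency after pTyr selection over input frequency; kinase dosed for 20-30% of maximal phosphorylation in three min.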

Chain of Hck (P08631 whole entry, looked up): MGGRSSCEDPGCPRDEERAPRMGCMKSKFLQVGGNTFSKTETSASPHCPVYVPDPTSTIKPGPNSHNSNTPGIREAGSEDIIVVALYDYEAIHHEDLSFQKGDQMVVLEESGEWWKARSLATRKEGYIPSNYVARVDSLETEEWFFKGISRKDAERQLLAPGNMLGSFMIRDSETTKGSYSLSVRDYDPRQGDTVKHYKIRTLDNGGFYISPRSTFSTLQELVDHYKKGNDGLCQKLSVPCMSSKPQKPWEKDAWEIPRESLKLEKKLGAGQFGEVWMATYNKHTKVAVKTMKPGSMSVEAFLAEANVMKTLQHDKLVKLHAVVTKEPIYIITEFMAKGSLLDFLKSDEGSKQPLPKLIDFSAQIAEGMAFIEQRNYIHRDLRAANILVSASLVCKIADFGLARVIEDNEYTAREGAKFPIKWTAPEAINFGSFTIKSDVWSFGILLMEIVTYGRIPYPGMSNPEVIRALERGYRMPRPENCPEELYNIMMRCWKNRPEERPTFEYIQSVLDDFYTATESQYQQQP
Chain of Fes (P07332 whole entry, looked up): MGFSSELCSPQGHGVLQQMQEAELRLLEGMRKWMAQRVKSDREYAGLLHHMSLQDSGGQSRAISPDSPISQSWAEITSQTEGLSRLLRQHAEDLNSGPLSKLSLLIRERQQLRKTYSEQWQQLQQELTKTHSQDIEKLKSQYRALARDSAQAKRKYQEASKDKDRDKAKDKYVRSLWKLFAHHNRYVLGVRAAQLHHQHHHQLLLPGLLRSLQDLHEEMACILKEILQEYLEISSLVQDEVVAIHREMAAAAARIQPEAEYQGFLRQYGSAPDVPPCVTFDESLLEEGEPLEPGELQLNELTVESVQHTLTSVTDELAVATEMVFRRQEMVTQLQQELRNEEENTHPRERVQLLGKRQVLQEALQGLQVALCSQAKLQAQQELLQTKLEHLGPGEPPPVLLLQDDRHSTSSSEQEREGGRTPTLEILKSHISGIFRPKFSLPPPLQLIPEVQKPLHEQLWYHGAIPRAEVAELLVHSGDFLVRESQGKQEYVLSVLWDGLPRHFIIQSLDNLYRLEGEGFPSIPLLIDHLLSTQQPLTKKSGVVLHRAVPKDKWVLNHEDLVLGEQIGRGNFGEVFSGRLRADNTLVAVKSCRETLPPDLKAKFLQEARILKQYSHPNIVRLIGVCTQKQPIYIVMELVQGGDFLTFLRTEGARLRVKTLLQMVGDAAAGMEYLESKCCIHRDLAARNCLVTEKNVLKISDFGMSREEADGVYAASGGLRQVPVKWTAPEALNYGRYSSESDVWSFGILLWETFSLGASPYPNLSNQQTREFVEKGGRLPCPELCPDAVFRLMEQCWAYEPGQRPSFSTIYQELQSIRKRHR
Chain of EPHB2 (P29323 whole entry, looked up): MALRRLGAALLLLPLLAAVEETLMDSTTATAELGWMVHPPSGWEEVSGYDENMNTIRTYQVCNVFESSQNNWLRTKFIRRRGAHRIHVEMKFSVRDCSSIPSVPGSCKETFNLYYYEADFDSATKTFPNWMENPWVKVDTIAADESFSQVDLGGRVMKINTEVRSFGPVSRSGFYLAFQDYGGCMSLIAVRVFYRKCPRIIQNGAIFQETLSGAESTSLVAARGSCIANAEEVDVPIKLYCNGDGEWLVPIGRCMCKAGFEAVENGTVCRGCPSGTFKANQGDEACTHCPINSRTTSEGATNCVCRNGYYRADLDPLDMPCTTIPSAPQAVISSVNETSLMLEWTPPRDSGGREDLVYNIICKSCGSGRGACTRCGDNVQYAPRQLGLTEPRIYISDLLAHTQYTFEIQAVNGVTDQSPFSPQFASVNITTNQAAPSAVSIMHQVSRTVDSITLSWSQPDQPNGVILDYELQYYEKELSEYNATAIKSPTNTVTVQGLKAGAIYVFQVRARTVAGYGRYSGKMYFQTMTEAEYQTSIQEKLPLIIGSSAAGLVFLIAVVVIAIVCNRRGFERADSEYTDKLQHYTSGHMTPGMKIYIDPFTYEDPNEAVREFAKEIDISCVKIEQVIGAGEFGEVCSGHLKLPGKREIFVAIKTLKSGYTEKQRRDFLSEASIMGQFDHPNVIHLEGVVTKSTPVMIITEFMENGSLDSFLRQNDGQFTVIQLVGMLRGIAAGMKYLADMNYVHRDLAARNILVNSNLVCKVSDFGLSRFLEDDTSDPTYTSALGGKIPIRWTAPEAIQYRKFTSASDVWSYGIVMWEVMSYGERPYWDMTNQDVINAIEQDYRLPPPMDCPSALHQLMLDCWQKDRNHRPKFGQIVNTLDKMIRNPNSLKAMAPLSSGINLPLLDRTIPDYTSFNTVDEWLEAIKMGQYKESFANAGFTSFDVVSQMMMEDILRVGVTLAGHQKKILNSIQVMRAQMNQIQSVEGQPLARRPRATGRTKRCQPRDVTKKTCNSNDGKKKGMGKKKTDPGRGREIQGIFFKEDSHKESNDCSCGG
Chain of EPHB1 (P54762 whole entry, looked up): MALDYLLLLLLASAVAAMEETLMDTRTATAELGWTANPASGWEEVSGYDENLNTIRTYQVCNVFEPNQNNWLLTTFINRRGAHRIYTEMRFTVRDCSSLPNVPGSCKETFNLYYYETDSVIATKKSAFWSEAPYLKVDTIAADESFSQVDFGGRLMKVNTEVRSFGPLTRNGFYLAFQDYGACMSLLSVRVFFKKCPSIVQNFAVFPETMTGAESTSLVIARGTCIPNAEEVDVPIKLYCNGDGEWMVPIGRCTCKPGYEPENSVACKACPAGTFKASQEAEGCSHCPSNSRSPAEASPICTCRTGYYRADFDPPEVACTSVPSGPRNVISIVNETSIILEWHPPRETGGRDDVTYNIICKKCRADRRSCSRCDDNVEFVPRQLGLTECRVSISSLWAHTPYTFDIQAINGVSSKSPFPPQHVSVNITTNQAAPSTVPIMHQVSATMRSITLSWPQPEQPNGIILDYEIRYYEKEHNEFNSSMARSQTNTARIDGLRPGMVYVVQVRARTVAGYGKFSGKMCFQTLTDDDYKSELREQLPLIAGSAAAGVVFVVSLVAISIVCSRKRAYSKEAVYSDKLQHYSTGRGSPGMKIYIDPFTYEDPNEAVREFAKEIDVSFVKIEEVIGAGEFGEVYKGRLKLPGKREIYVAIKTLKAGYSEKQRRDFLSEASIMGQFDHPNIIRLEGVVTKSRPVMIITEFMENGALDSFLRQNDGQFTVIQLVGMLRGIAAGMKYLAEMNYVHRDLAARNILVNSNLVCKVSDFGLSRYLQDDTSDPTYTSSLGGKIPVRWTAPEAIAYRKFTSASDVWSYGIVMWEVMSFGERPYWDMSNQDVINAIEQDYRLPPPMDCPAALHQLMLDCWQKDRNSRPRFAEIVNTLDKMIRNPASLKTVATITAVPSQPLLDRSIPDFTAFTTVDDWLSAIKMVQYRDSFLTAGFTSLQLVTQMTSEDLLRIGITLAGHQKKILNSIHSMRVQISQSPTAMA
Chain of MERTK (Q12866 whole entry, looked up): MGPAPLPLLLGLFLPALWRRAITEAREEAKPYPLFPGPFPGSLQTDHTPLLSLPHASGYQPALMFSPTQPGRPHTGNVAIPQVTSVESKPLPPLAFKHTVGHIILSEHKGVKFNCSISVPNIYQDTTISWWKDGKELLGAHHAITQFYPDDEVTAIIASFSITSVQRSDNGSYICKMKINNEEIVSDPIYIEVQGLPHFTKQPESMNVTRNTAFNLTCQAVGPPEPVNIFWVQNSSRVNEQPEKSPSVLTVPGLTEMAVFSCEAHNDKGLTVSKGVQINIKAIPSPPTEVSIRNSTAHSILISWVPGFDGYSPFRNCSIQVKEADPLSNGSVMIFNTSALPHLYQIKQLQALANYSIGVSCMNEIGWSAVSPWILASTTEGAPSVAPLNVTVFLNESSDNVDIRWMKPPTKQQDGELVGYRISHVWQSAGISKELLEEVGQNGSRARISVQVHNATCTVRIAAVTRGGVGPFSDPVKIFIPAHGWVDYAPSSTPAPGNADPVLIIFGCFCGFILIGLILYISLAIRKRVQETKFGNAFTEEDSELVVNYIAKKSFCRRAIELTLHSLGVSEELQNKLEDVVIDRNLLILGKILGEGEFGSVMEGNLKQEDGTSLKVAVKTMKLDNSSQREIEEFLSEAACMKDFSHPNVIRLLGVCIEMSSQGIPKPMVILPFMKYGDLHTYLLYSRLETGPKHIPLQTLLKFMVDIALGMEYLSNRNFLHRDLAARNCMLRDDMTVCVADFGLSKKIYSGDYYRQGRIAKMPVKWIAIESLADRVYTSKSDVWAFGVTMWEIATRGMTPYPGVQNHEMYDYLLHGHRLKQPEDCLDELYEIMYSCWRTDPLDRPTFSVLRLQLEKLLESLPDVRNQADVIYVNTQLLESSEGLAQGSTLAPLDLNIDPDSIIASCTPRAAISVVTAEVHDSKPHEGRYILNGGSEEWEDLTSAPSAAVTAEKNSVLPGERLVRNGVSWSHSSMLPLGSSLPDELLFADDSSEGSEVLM
Chain of Grb2 SH2 (P62993 whole entry, looked up): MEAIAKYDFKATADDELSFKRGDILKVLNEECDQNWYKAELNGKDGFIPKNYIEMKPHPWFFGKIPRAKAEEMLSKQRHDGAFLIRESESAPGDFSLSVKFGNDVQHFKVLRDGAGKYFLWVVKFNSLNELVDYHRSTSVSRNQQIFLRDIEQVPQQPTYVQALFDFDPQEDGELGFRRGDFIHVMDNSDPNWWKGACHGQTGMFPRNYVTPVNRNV

For the sequence KELSNYKHLTL [SLIT2_Y776], the results for the SH2 binding enrichment in the data set with c-Src SH2, with Grb2 SH2 and with SHP2-C SH2 were 0.503, 0.721 and 0.634, respectively. In addition, the phosphorylation enrichment with MERTK stood at 0.443; in the data set with Hck, 0.384; with AncSZ, 0.571; with EPHB2, 0.409; in the data set on c-Abl (mouse) it was 0.522; in the data set with Fyn, 0.417. The phosphorylation enrichment with c-Src stood at 0.368; in the data set with Jak2, 0.543; with EPHB1 it was 0.494; with FGFR3, 0.43; with FGFR1 it was 0.501; with Fes, 0.528. Moreover, the phosphorylation enrichment with Fer (mouse) was determined as 0.423.

Take NLRQQYNSPQE [UMPS_Y432_G429R]: the figures for the SH2 binding enrichment with c-Src SH2, with Grb2 SH2 and with SHP2-C SH2 were 0.635, 0.829 and 0.769, respectively. For the same sequence, the phosphorylation enrichment is 0.293 with MERTK; 0.451 with Hck; 0.634 with AncSZ; 0.439 in the data set with EPHB2; 0.354 with c-Abl (mouse); 0.437 with Fyn. Also, the phosphorylation enrichment was determined as 0.316 with c-Src; 0.592 with Jak2; 0.382 with EPHB1; 0.43 with FGFR3; 0.464 with FGFR1; 0.587 with Fes. Further, in the data set on Fer (mouse), the phosphorylation enrichment came to 0.345.

In the case of FTGNTYRVGDT [FN1_Y106_YF], the SH2 binding enrichment with c-Src SH2 was determined as 0.479; with Grb2 SH2, 0.893; with SHP2-C SH2, 0.853. Moreover, the phosphorylation enrichment with MERTK is 0.394; with Hck, 0.293; in the data set with AncSZ, 0.634; in the data set with EPHB2, 0.464; in the data set with c-Abl (mouse) it was 0.479; in the data set with Fyn it was 0.424. The phosphorylation enrichment in the data set with c-Src turned out to be 0.476; in the data set with Jak2 it was 0.499; with EPHB1 it was 0.382; in the data set with FGFR3, 0.472; with FGFR1, 0.372; in the data set with Fes, 0.667. Also, the phosphorylation enrichment in the data set with Fer (mouse) worked out at 0.396.

For the sequence SLQFEYVHYGG [CDC14A_Y591_S589F], the SH2 binding enrichment with c-Src SH2 came to 0.609; in the data set with Grb2 SH2 it was 0.686; in the data set with SHP2-C SH2 it was 0.523. The phosphorylation enrichment in the data set with MERTK was 0.348; in the data set with Hck it was 0.551; with AncSZ it was 1.06; in the data set with EPHB2 it was 0.628; in the data set on c-Abl (mouse), 0.405; in the data set with Fyn it was 0.516. In addition, the phosphorylation enrichment with c-Src turned out to be 0.465; in the data set with Jak2, 0.766; in the data set with EPHB1 it was 0.556; with FGFR3, 0.742; with FGFR1, 0.797; with Fes, 0.904. In the data set on Fer (mouse), the phosphorylation enrichment stood at 0.481.

Turning to FIATQYSLCPR [LBR_Y166_R169C_YF], the SH2 binding enrichment with c-Src SH2 amounted to 0.687; with Grb2 SH2 it was 1.02; with SHP2-C SH2, 0.851. For the same sequence, the phosphorylation enrichment is 0.752 with MERTK; 0.749 with Hck; 1.03 in the data set on AncSZ; 0.666 in the data set with EPHB2; 0.777 with c-Abl (mouse); 0.486 with Fyn. Besides, the phosphorylation enrichment with c-Src is 0.683; with Jak2, 1.14; with EPHB1 it was 0.618; with FGFR3, 0.762; with FGFR1, 0.475; with Fes, 1.07. In the data set on Fer (mouse), the phosphorylation enrichment was 0.631.

Take FGFPGYQCKHF [TIMP3_Y177_S179C_YF]: the SH2 binding enrichment with c-Src SH2 was 0.83; in the data set with Grb2 SH2, 1.37; in the data set with SHP2-C SH2, 0.703. In addition, the phosphorylation enrichment was 0.542 with MERTK; 0.506 in the data set with Hck; 0.695 with AncSZ; 0.514 in the data set with EPHB2; 0.716 in the data set with c-Abl (mouse); 0.445 in the data set with Fyn. Also, the phosphorylation enrichment in the data set with c-Src was determined as 0.548; with Jak2, 0.831; with EPHB1, 0.337; with FGFR3, 0.535; with FGFR1, 0.517; with Fes it was 0.789. The phosphorylation enrichment in the data set on Fer (mouse) turned out to be 0.473.

On to NALVQYQEMEK [BBS4_Y395_A393V], for which the SH2 binding enrichment worked out at 4.65 with c-Src SH2, 1.04 in the data set with Grb2 SH2 and 0.745 in the data set with SHP2-C SH2. Besides, the phosphorylation enrichment in the data set with MERTK is 0.459; with Hck it was 0.569; with AncSZ, 0.978; with EPHB2, 0.503; with c-Abl (mouse) it was 0.62; in the data set with Fyn, 0.53. In addition, the phosphorylation enrichment in the data set with c-Src was found to be 0.507; with Jak2, 1.02; in the data set with EPHB1 it was 0.507; with FGFR3 it was 0.721; with FGFR1, 0.562; with Fes, 1.02. The phosphorylation enrichment in the data set on Fer (mouse) stood at 0.509.

With DAVAVCHGKIS [SH2D1A_Y7_Y7C], the SH2 binding enrichment with c-Src SH2 was found to be 0.536; in the data set with Grb2 SH2, 0.71; in the data set with SHP2-C SH2 it was 0.539. In addition, the phosphorylation enrichment in the data set with MERTK was 0.403; in the data set with Hck it was 0.458; in the data set with AncSZ, 0.658; with EPHB2, 0.471; with c-Abl (mouse), 0.59; in the data set with Fyn it was 0.472. The phosphorylation enrichment in the data set with c-Src is 0.406; with Jak2 it was 0.774; with EPHB1, 0.387; in the data set with FGFR3, 0.628; in the data set with FGFR1, 0.467; with Fes it was 0.745. Also, the phosphorylation enrichment in the data set on Fer (mouse) is 0.467.

On to LVRPPYSFLAL [FOXI1_Y126_S129L_YF], for which the SH2 binding enrichment in the data set with c-Src SH2 came out at 0.547; in the data set with Grb2 SH2 it was 0.713; with SHP2-C SH2 it was 0.842. For the same sequence, the phosphorylation enrichment amounted to 1.05 with MERTK; 0.727 with Hck; 0.683 in the data set with AncSZ; 0.523 with EPHB2; 0.526 in the data set with c-Abl (mouse); 0.525 in the data set with Fyn. The phosphorylation enrichment in the data set with c-Src was determined as 0.525; with Jak2, 0.71; with EPHB1, 0.584; with FGFR3, 0.866; with FGFR1, 1.07; with Fes, 0.787. The phosphorylation enrichment in the data set with Fer (mouse) was 1.22.
